Source: the supplement of paper PMC10567573
± gives the standard deviation.

Experiment: protein stability index of a GFP-peptide fusion (GPS, HEK-293T) (PSI 1-6); higher = more stable
[1] = treatment: DMSO, c terminus: a fixed tail appended
[2] = treatment: MLN4924 1 uM, 8 h, c terminus: a fixed tail appended
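Also: 24-mer peptide tiles fused after GFP, lentivirally expressed, FACS-sorted into six equal bins by GFP/DsRed ratio, decoded by Illumina sequencing, PSI is the read-weighted mean bin number.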

| Sequence | protein stability index [1] | protein stability index [2] | protein stability index (treatment: DMSO, c terminus: native) | protein stability index (treatment: MLN4924 1 uM, 8 h, c terminus: native) |
| --- | --- | --- | --- | --- |
| IKIRPGEFEQFESTIGFKLPNHRA [EPB41L3] | 2.64 ± 0.03 | 2.75 ± 0.63 | – | – |
| AKADTTSTVTPVPGQEKGSALEGR [EHMT1] | 5.3 ± 0.24 | 5.38 ± 0.12 | – | – |
| FFRMFDRNTKRDVTLEASRENSKP [PPP2R2B] | 3.45 ± 0.14 | 3.82 ± 0.23 | – | – |
| RGFVFGGRYRDARMNDLHYLNLDT [KLHDC2] | 2.71 ± 0.33 | 2.59 ± 0.35 | – | – |
| SLKAKVSDNMSHLMVDFAQERQML [FSD1] | 3.33 ± 0.22 | 3.31 ± 0.31 | – | – |
| KMLSKAVDALKSDKKVRTIIIRSE [AUH] | 1.81 ± 0.26 | 2 ± 0.6 | – | – |
| MQSARGPTPSSPLPSVPVSVPASD [PLEKHN1] | 4.78 ± 0.28 | 4.79 ± 0.11 | – | – |
| RAPGAGLGQDRQVPLWGQLLLFLV [EMD] | 2.49 ± 0.17 | 2.09 ± 0.37 | – | – |
| ESEGSESSGRSCRNERSIQEKLQV [SMG5] | 4.82 ± 0.12 | 4.75 ± 0.27 | – | – |
| DYHLLHPVENIPEIILYWKHSTIF [SLC25A25] | 2.71 ± 0.46 | 2.76 ± 0.63 | – | – |
| QGPGGDEDDDEEDTDKLLNSASDP [PSD2] | 5.59 ± 0.26 | 5.54 ± 0.21 | – | – |
| APDRATAVATASRLGPYVLLEPEE [TRIB3] | 5.04 ± 0.31 | 5.04 ± 0.24 | – | – |
| HLYPADFRFDKPKKSRSPASAEAP [ZNF511] | 3.38 ± 0.52 | 3.83 ± 0.45 | – | – |
| TCECLEGFRLAEDGKRCRRKDVCK [MATN2] | 4.24 ± 0.25 | 4.83 ± 0.28 | – | – |
| EPITGWRKTVCHNGVLGLSRLLFF [LPCAT4] | 2.57 ± 0.71 | 2.2 ± 0.37 | – | – |
| FLQEEAIDRNYVPGKSLAVSCPGW [SNX12] | 2.73 ± 0.3 | 3.2 ± 0.2 | – | – |
| EDVKCQEDQKLQVLLTQIESKKHQ [TRIM15] | 5.12 ± 0.32 | 5.18 ± 0.1 | – | – |
| IPLYPLGCLAEAVSVIQSIPIFNE [HACD3] | 2.7 ± 0.47 | 2.97 ± 0.81 | – | – |
| PHYELCTLRGTGATADFADVADDF [NETO1] | 4.69 ± 0.1 | 4.59 ± 0.25 | – | – |
| LVGLATAAFGHVQRAEMLPKTSGT [CPOX] | 2.9 ± 0.3 | 2.91 ± 0.14 | – | – |
| TSGNPNGRYGSGYLLASTPESEL [SLC6A17] | – | – | 4.62 ± 0.37 | 4.58 ± 0.2 |
| DNWKSQVEPETRAVIRWMHSFNFV [CPN1] | 2.26 ± 0.52 | 2.23 ± 0.14 | – | – |
| HPLPTVIIVNLLWFIHLVFVVLAF [TMEM192] | 3.37 ± 0.063 | 3.02 ± 0.7 | – | – |

| Sequence | protein stability index [1] | protein stability index [2] | protein stability index (treatment: DMSO, c terminus: native) | protein stability index (treatment: MLN4924 1 uM, 8 h, c terminus: native) |
| --- | --- | --- | --- | --- |
| PVPPPSYFATFYSCTPRMNRRMVG [FAM189A2] | 2.43 ± 0.28 | 2.43 ± 0.33 | – | – |
| VNQYVIRPGPSASAASSAAAGEPL [RNF208] | 3.88 ± 0.22 | 3.96 ± 0.23 | – | – |
| GHAAPGTDAGKAFCMFYAVLGIPL [KCNK9] | 2.81 ± 0.19 | 2.84 ± 0.39 | – | – |
| RKSVPGPGNRTCTGTSKRYQLCRV [ADAMTSL2] | 2.91 ± 0.41 | 2.68 ± 0.093 | – | – |
| EDGRPSLGSPYGQPPRFPVPHNGS [PDLIM4] | 4.8 ± 0.17 | 4.63 ± 0.26 | – | – |
| PKTVPSHVFSELWDLSEAWMQANY [ELOA2] | 2.6 ± 0.26 | 2.56 ± 0.41 | – | – |
| YSALREESAKDWETSPLPGMLAPA [PPFIA4] | 4.26 ± 0.23 | 4.04 ± 0.21 | – | – |
| ISVEGINHDIRTANDGDYWRLLNP [CPXM2] | 2.64 ± 0.44 | 2.7 ± 0.44 | – | – |
| DCRYPYEYEGGHIKTAVNLPLERD [CDC25B] | 4.13 ± 0.23 | 4.14 ± 0.63 | – | – |
| LRGSYNSLHDGSDGLDGISVGSYL [LURAP1L] | 3.08 ± 0.24 | 3.1 ± 0.15 | – | – |
| LEGALHQAKEELARMLREYQELMS [KRT71] | 2.98 ± 0.3 | 3.48 ± 0.46 | – | – |
| PYTRSIQILKDTKSITSAMNELQH [TPH1] | 2.61 ± 0.22 | 2.71 ± 0.16 | – | – |
| DGHRPEWTFYPRFSSNIHTYHVGK [SPATS1] | 2.96 ± 0.077 | 3.01 ± 0.21 | – | – |
| SDGGQKNKPREHIIDCGDIVWSLA [WSB1] | 3.07 ± 0.36 | 3.23 ± 0.21 | – | – |
| MPSWASARDRQPSDFKTDKEGGQA [ELOA2] | 5.14 ± 0.43 | 5.2 ± 0.22 | – | – |
| DRKGYMFDYEYDWIGKQLPTPVGA [CSNK1G3] | 2.55 ± 0.23 | 2.62 ± 0.25 | – | – |
| GSGPIQLWQFLLELLTDKSCQSFI [ETS1] | 1.88 ± 0.67 | 2.94 ± 1.2 | – | – |
| EAAFHPIEEYMVHVEEHFQLLARR [FUT8] | 3.06 ± 0.29 | 3.34 ± 0.36 | – | – |
| TLSFNMSDKYPIQDTELPKAEECD [EDARADD] | 4.55 ± 0.39 | 4.36 ± 0.31 | – | – |
| LESRIRDVHELFLQMAVLVEKQAD [STX11] | 2.27 ± 0.35 | 2.37 ± 0.34 | – | – |
| HLVIQNLFEGMIWFLVPISSVICN [CDS1] | 2.96 ± 0.2 | 3.25 ± 0.41 | – | – |
| PDNWFCYPCIPNHELVWAKMKGFG [ZMYND11] | 2.43 ± 0.37 | 2.12 ± 0.18 | – | – |
